Consider 1 molecule from publication PMC9156758, “Cryo-EM structures of human A2ML1 elucidate the protease-inhibitory mechanism of the A2M family” (Nature Communications, 2022).

What all share (assay): cell-based or functional assay
Assay [1] concerns the target T1, Thermolysin from Geobacillus stearothermophilus (Geobacillus stearothermophilus, UniProt P00800 233-548).
T1 sequence (looked up): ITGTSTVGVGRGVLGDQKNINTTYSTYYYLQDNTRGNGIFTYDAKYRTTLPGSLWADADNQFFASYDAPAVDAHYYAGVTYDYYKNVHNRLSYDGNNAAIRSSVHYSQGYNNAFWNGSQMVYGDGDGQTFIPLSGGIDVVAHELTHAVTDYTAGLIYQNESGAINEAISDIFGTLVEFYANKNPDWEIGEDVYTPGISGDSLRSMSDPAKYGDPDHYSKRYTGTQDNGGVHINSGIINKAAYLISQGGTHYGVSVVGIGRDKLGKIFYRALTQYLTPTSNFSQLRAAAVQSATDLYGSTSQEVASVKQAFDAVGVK

Assay [2] addresses Bovine pancreatic α-chymotrypsin (bovine).
The target of assay [3] is T2, Human neutrophil elastase (HNE) (human, UniProt P08246 30-267).
T2 sequence (looked up): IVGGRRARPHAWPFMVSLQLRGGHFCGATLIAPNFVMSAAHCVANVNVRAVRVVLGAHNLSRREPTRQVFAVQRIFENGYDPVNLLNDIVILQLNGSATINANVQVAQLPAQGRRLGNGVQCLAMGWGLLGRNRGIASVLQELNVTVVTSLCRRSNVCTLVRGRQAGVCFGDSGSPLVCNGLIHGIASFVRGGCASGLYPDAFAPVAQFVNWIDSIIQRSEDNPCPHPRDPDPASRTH

B1: Human alpha-2 macroglobulin-like 1 (A2ML1), recombinant wild type, native (natural protein, UniProt A8K2U0 18-1454, looked up)
chain: EELPNYLVTLPARLNFPSVQKVCLDLSPGYSDVKFTVTLETKDKTQKLLEYSGLKKRHLHCISFLVPPPAGGTEEVATIRVSGVGNNISFEEKKKVLIQRQGNGTFVQTDKPLYTPGQQVYFRIVTMDSNFVPVNDKYSMVELQDPNSNRIAQWLEVVPEQGIVDLSFQLAPEAMLGTYTVAVAEGKTFGTFSVEEYVLPKFKVEVVEPKELSTVQESFLVKICCRYTYGKPMLGAVQVSVCQKANTYWYREVEREQLPDKCRNLSGQTDKTGCFSAPVDMATFDLIGYAYSHQINIVATVVEEGTGVEANATQNIYISPQMGSMTFEDTSNFYHPNFPFSGKIRVRGHDDSFLKNHLVFLVIYGTNGTFNQTLVTDNNGLAPFTLETSGWNGTDVSLEGKFQMEDLVYNPEQVPRYYQNAYLHLRPFYSTTRSFLGIHRLNGPLKCGQPQEVLVDYYIDPADASPDQEISFSYYLIGKGSLVMEGQKHLNSKKKGLKASFSLSLTFTSRLAPDPSLVIYAIFPSGGVVADKIQFSVEMCFDNQVSLGFSPSQQLPGAEVELQLQAAPGSLCALRAVDESVLLLRPDRELSNRSVYGMFPFWYGHYPYQVAEYDQCPVSGPWDFPQPLIDPMPQGHSSQRSIIWRPSFSEGTDLFSFFRDVGLKILSNAKIKKPVDCSHRSPEYSTAMGAGGGHPEAFESSTPLHQAEDSQVRQYFPETWLWDLFPIGNSGKEAVHVTVPDAITEWKAMSFCTSQSRGFGLSPTVGLTAFKPFFVDLTLPYSVVRGESFRLTATIFNYLKDCIRVQTDLAKSHEYQLESWADSQTSSCLCADDAKTHHWNITAVKLGHINFTISTKILDSNEPCGGQKGFVPQKGRSDTLIKPVLVKPEGVLVEKTHSSLLCPKGKVASESVSLELPVDIVPDSTKAYVTVLGDIMGTALQNLDGLVQMPSGCGEQNMVLFAPIIYVLQYLEKAGLLTEEIRSRAVGFLEIGYQKELMYKHSNGSYSAFGERDGNGNTWLTAFVTKCFGQAQKFIFIDPKNIQDALKWMAGNQLPSGCYANVGNLLHTAMKGGVDDEVSLTAYVTAALLEMGKDVDDPMVSQGLRCLKNSATSTTNLYTQALLAYIFSLAGEMDIRNILLKQLDQQAIISGESIYWSQKPTPSSNASPWSEPAAVDVELTAYALLAQLTKPSLTQKEIAKATSIVAWLAKQHNAYGGFSSTQDTVVALQALAKYATTAYMPSEEINLVVKSTENFQRTFNIQSVNRLVFQQDTLPNVPGMYTLEASGQGCVYVQTVLRYNILPPTNMKTFSLSVEIGKARCEQPTSPRSLTLTIHTSYVGSRSSSNMAIVEVKMLSGFSPMEGTNQLLLQQPLVKKVEFGTDTLNIYLDELIKNTQTYTFTISQSVLVTNLKPATIKVYDYYLPDEQATIQYSDPCE
modifications: internal thioester Cys970-Gln973; N-glycans (Asn120, Asn328, Asn857 named)
As for B1, the “inhibition of thermolysin's β-casein-cleaving activity, A2ML1:thermolysin molar ratios up to 4:1, without BAPN” value in assay [1] was about 95 % inhibited. For the same molecule, the “inhibition of β-casein-cleaving activity at a 4:1 A2ML1:protease molar ratio” value in assay [2] is about 65 % inhibited; in assay [3], about 10 % inhibited.
